Target: T1, HA-tPPARγΔ64D (THP-1) (human, UniProt P37231-2 65-477)
T1 construct: also called truncated PPARγ; source: THP-1, transfected, in cell extract; not shown: HA, C-terminal, kept
T1 sequence (looked up): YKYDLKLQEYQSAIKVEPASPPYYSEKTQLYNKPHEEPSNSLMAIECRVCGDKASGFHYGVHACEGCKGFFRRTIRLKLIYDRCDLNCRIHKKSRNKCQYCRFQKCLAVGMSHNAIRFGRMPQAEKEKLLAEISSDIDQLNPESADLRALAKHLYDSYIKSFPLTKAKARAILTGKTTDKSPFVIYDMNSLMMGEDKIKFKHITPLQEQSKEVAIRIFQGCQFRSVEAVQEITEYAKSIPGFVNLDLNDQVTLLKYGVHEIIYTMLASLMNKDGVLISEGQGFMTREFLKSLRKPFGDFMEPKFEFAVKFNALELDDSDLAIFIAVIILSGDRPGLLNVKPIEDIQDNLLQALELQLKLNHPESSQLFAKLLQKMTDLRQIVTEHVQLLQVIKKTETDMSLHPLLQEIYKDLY
Experiment: co-IP; THP-1 cells transfected with HA-PPARγ or HA-tPPARγΔ64D; extracts precipitated with anti-HA and blotted with anti-MCAD, or precipitated with anti-MCAD and blotted with anti-HA; blots scanned
Details: partners not purified

fold MCAD bound against full-length PPARγ: 8 fold
B1: medium-chain acyl-CoA dehydrogenase (MCAD), endogenous in THP-1 (enzyme, human (endogenous in THP-1), UniProt P11310 26-421, looked up)
chain: KANRQREPGLGFSFEFTEQQKEFQATARKFAREEIIPVAAEYDKTGEYPVPLIRRAWELGLMNTHIPENCGGLGLGTFDACLISEELAYGCTGVQTAIEGNSLGQMPIIIAGNDQQKKKYLGRMTEEPLMCAYCVTEPGAGSDVAGIKTKAEKKGDEYIINGQKMWITNGGKANWYFLLARSDPDPKAPANKAFTGFIVEADTPGIQIGRKELNMGQRCSDTRGIVFEDVKVPKENVLIGDGAGFKVAMGAFDKTRPVVAAGAVGLAQRALDEATKYALERKTFGKLLVEHQAISFMLAEMAMKVELARMSYQRAAWEVDSGRRNTYYASIAKAFAGDIANQLATDAVQILGGNGFNTEYPVEKLMRDAKIYQIYEGTSQIQRLIVAREHIDKYKN
notes: medium-chain acyl-CoA dehydrogenase (MCAD), mitochondrial; detected and precipitated with an anti-MCAD antibody; source: endogenous, THP-1 cell extract

— paper PMC5626701, “Caspase-1 cleaves PPARγ for potentiating the pro-tumor action of TAMs” (Nature Communications, 2017)
